Four molecules from patent US20100292104A1 (LAWRENCE LIVERMORE NATIONAL SECURITY, published 2010) can be followed below.

In the assay the target is Maltose Binding Protein (MBP)-N-intein fusion protein (Synechocystis sp. PCC6803, UniProt P74750 771-897). The assay can be described thus: cell-based or functional assay.

B1: DnaE C-intein polypeptide photocaged at Gly6 (peptide)
peptide: not shown
modifications: Gly6 backbone amide caged with nitroveratryl (1,2-dimethoxy-4-methyl-3-nitro-benzyl) group; C-terminal PEGylated thiol linker; Cys37 protected as S-tBu during synthesis
As to B1, the “trans-splicing activity relative to the non-photocaged C-intein polypeptide” value was roughly 30%.

B2: DnaE C-intein polypeptide photocaged at Gly19 (peptide)
peptide: not shown
modifications: Gly19 backbone amide caged with nitroveratryl (1,2-dimethoxy-4-methyl-3-nitro-benzyl) group; C-terminal PEGylated thiol linker; Cys37 protected as S-tBu during synthesis
On to B2, for which the “trans-splicing activity relative to the non-photocaged C-intein polypeptide” value was roughly 30%.

B3: DnaE C-intein polypeptide photocaged at Gly31 (peptide)
peptide: not shown
modifications: Gly31 backbone amide caged with nitroveratryl (1,2-dimethoxy-4-methyl-3-nitro-benzyl) group; C-terminal PEGylated thiol linker; Cys37 protected as S-tBu during synthesis
Turning to B3, the “trans-splicing activity relative to the non-photocaged C-intein polypeptide” value was 10%.

B4: DnaE C-intein polypeptide photocaged at Gly11 (peptide)
peptide: not shown
modifications: Gly11 backbone amide caged with nitroveratryl (1,2-dimethoxy-4-methyl-3-nitro-benzyl) group; C-terminal PEGylated thiol linker; Cys37 protected as S-tBu during synthesis
Take B4: the “trans-splicing activity relative to the non-photocaged C-intein polypeptide” value is roughly 60%.
